Measurements from PMC4067148 (Biochemistry, 2014).
Substitutions are numbered along the chain they refer to. Names may count otherwise.

How the values were obtained:
native gel or EMSA [1] = molecular target: the molecule itself; test: native gel or EMSA
native gel or EMSA [2] = molecular target: the molecule itself; test: native gel or EMSA; remark: listed apart in the source

B1: wild-type AcrB (natural protein, Escherichia coli)
chain: MPNFFIDRPIFAWVIAIIIMLAGGLAILKLPVAQYPTIAPPAVTISASYPGADAKTVQDTVTQVIEQNMNGIDNLMYMSSNSDSTGTVQITLTFESGTDADIAQVQVQNKLQLAMPLLPQEVQQQGVSVEKSSSSFLMVVGVINTDGTMTQEDISDYVAANMKDAISRTSGVGDVQLFGSQYAMRIWMNPNELNKFQLTPVDVITAIKAQNAQVAAGQLGGTPPVKGQQLNASIIAQTRLTSTEEFGKILLKVNQDGSRVLLRDVAKIELGGENYDIIAEFNGQPASGLGIKLATGANALDTAAAIRAELAKMEPFFPSGLKIVYPYDTTPFVKISIHEVVKTLVEAIILVFLVMYLFLQNFRATLIPTIAVPVVLLGTFAVLAAFGFSINTLTMFGMVLAIGLLVDDAIVVVENVERVMAEEGLPPKEATRKSMGQIQGALVGIAMVLSAVFVPMAFFGGSTGAIYRQFSITIVSAMALSVLVALILTPALCATMLKPIAKGDHGEGKKGFFGWFNRMFEKSTHHYTDSVGGILRSTGRYLVLYLIIVVGMAYLFVRLPSSFLPDEDQGVFMTMVQLPAGATQERTQKVLNEVTHYYLTKEKNNVESVFAVNGFGFAGRGQNTGIAFVSLKDWADRPGEENKVEAITMRATRAFSQIKDAMVFAFNLPAIVELGTATGFDFELIDQAGLGHEKLTQARNQLLAEAAKHPDMLTSVRPNGLEDTPQFKIDIDQEKAQALGVSINDINTTLGAAWGGSYVNDFIDRGRVKKVYVMSEAKYRMLPDDIGDWYVRAADGQMVPFSAFSSSRWEYGSPRLERYNGLPSMEILGQAAPGKSTGEAMELMEQLASKLPTGVGYDWTGMSYQERLSGNQAPSLYAISLIVVFLCLAALYESWSIPFSVMLVVPLGVIGALLAATFRGLTNDVYFQVGLLTTIGLSAKNAILIVEFAKDLMDKEGKGLIEATLDAVRMRLRPILMTSLAFILGVMPLVISTGAGSGAQNAVGTGVMGGMVTATVLAIFFVPVFFVVVRRRFSRKNEDIEHSHTVDHH
- KX (trimer association constant, mole fraction) (native gel or EMSA [1]): 1.6e+09

B2: AcrB_(E893G/W895G) (natural protein, Escherichia coli)
chain: B1 chain with E893G, W895G
- stoichiometry N (native gel or EMSA [2]): 3
- KX (trimer association constant, mole fraction) (native gel or EMSA [1]): 8.6e+06

B3: AcrB_(L886G/E893G/W895G) (natural protein, Escherichia coli)
chain: B1 chain with L886G, E893G, W895G
- stoichiometry N (native gel or EMSA [2]): 3
- KX (trimer association constant, mole fraction) (native gel or EMSA [1]): 1e+07

B4: AcrB_(L886G) (natural protein, Escherichia coli)
chain: B1 chain with L886G
- stoichiometry N (native gel or EMSA [2]): 3
- KX (trimer association constant, mole fraction) (native gel or EMSA [1]): 1.4e+07

B5: AcrB_(L886G/E893G) (natural protein, Escherichia coli)
chain: B1 chain with L886G, E893G
- stoichiometry N (native gel or EMSA [2]): 3
- KX (trimer association constant, mole fraction) (native gel or EMSA [1]): 1e+07

B6: AcrB_(W895G) (natural protein, Escherichia coli)
chain: B1 chain with W895G
- stoichiometry N (native gel or EMSA [2]): 3
- KX (trimer association constant, mole fraction) (native gel or EMSA [1]): 2.2e+07

B7: AcrB_(E893G) (natural protein, Escherichia coli)
chain: B1 chain with E893G
- stoichiometry N (native gel or EMSA [2]): 3
- KX (trimer association constant, mole fraction) (native gel or EMSA [1]): 3.2e+09
